Columns and labels:
[1] = molecular target: T1, human THAP1 (THanatos-Associated-Protein-1), full length (human, UniProt Q9NVV9 1-213); test: yeast two-hybrid, both orientations
T1 construct: these tags are not written into the chain; also called hTHAP1; THAP1 wild type
T1 sequence: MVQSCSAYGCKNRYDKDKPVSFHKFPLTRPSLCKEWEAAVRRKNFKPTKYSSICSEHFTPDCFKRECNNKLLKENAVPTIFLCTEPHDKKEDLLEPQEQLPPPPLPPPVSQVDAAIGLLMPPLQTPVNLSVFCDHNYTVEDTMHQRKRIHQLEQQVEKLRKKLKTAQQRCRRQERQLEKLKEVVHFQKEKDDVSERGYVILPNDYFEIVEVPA
Protocol: To identify potential protein partners of THAP1, screening of the two-hybrid HEVEC cDNA library was performed using as a bait the human THAP1 full length cDNA inserted into the […] two-hybrid system 3 vector pGBKT7 (Clontech). Briefly, the full-length coding region of THAP1 was amplified by PCR from HEVEC cDNA with primers 2HMR10 (5′-[…]-3′) (SEQ ID NO: 187) and 2HMR9 (5′-[…]-3′) (SEQ ID NO: 188), digested with EcoRI and BamHI, and cloned in frame downstream of the Gal4 Binding Domain (Gal4-BD) in pGBKT7 vector to generate pGBKT7-THAP1. pGBKT7-THAP1 was then cotransformed with the pGAD424-HEVEC cDNA library in yeast strain AH109 (Clontech). 1.5×10⁷ yeast transformants were screened and positive protein interactions were selected by His and Ade double auxotrophy according to manufacturer's instructions ([…] two-hybrid system 3, Clontech). The plates were incubated at 30° C. for 5 days. Plasmid DNA was extracted from these positive colonies and used to verify the specificity of the interaction by cotransformation in AH109 with pGBKT7-THAP1 or control baits pGBKT7, pGBKT7-lamin and pGBKT7-hevin. […] Positive interaction between THAP1 and Par4 was confirmed using full length Par4 bait (pGBKT-Par4) and prey (pGADT7-Par4). […]

human THAP2, full length = molecular target: T2, human THAP2, full length (human, UniProt Q9H0W7 1-228); test: yeast two-hybrid, Par4DD bait
T2 construct: Two-hybrid fusion or 35S-labelled in vitro translation product
T2 sequence (Q9H0W7 whole entry, the tested form may be a part): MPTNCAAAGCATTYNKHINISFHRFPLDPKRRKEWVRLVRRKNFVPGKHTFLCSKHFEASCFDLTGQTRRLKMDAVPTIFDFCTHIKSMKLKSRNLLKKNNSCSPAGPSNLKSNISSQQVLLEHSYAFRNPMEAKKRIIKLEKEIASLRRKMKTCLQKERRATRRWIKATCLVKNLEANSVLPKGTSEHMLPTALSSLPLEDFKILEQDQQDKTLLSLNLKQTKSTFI

human THAP3, full length = molecular target: T3, human THAP3, full length (human, UniProt Q8WTV1 1-239); test: yeast two-hybrid, Par4DD bait
T3 construct: Two-hybrid fusion or 35S-labelled in vitro translation product
T3 sequence: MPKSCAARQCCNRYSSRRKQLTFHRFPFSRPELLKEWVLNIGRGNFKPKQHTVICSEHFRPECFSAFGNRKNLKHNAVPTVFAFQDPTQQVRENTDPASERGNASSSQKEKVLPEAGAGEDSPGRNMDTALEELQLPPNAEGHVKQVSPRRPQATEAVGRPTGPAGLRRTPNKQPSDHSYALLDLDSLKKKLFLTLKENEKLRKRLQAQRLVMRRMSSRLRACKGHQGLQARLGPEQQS

[2] = molecular target: T4, THAP1ΔQRCRR mutant (deletion of residues 168-172) (human, UniProt Q9NVV9 1-213); test: yeast two-hybrid and in vivo interaction assay
T4 sequence: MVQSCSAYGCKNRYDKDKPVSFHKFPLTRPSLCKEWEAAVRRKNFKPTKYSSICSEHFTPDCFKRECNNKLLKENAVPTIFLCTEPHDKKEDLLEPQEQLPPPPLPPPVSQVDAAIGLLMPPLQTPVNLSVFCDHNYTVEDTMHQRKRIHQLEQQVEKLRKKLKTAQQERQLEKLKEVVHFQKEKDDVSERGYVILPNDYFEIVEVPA

B1: Par4 leucine zipper/death domain (Par4DD, amino acids 250-342) (other)
chain: GFPRYNRDANVSGTLVSSSTLEKKIEDLEKEVVTERQENLRLVRLMQDKEEMIGKLKEEIDLLNRDLDDIEDENEQLKQENKTLLKVVGQLTR
notes: Gal4 fusion in two-hybrid; also called myc-Par4DD
B1: binds [1]; binds (human THAP2, full length); binds (human THAP3, full length). B1: no binding [2].
